Results on 6 molecules are retold here after article PMC3161067, “Combined SAXS/EM Based Models of the S. elongatus Post-Translational Circadian Oscillator and its Interactions with the Output His-Kinase SasA” (PLoS ONE, 2011).

Broadly, the stoichiometry N is a count of units in the complex or per binding partner.

T1: KaiBC complex (KaiB with wild type KaiC) (S. elongatus, UniProt Q79PF5 1-102; Q79PF4 1-519)
T1 construct: KaiB, Synechococcus elongatus, as m2; wild type KaiC, Synechococcus elongatus, as m3; KaiC phosphorylation state varies in the cycling reaction; also called KaiB-KaiC; source: formed in the in vitro cycling reaction from purified proteins; copies: + 6
T1 sequence (looked up) 1: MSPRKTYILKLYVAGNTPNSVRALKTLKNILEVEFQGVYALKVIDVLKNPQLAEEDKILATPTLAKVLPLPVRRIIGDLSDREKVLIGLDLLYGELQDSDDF
T1 sequence (looked up) 2: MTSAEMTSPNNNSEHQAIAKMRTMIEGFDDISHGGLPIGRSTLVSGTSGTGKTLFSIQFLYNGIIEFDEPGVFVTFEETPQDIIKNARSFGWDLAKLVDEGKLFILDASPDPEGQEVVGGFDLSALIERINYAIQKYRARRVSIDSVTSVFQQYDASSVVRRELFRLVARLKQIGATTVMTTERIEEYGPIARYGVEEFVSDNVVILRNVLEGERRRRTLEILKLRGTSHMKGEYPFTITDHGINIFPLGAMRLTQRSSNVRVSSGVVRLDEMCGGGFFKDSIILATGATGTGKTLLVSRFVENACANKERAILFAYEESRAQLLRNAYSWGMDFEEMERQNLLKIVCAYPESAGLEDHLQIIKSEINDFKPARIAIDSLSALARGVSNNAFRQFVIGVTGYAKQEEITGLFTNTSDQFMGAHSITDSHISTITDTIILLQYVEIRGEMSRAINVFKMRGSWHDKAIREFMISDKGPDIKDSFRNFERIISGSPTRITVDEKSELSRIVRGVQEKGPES

B1: KaiA (S. elongatus) (natural protein, UniProt Q79PF6 1-284, looked up)
chain: MLSQIAICIWVESTAILQDCQRALSADRYQLQVCESGEMLLEYAQTHRDQIDCLILVAANPSFRAVVQQLCFEGVVVPAIVVGDRDSEDPDEPAKEQLYHSAELHLGIHQLEQLPYQVDAALAEFLRLAPVETMADHIMLMGANHDPELSSQQRDLAQRLQERLGYLGVYYKRDPDRFLRNLPAYESQKLHQAMQTSYREIVLSYFSPNSNLNQSIDNFVNMAFFADVPVTKVVEIHMELMDEFAKKLRVEGRSEDILLDYRLTLIDVIAHLCEMYRRSIPRET
notes: KaiA, Synechococcus elongatus; also called KaiA dimer; wt KaiA; source: E. coli BL21, GST fusion, purified
B2: SasA (S. elongatus His kinase) (natural protein, UniProt Q06904 1-387, looked up)
chain: MGESLSPQALAQPLLLQLFVDTRPLSQHIVQRVKNILAAVEATVPISLQVINVADQPQLVEYYRLVVTPALVKIGPGSRQVLSGIDLTDQLANQLPQWLVQQEAFFADREPPEVNIPFTELGQPETPALQQADAFFQLQQQYADLSERTKFLEQVIALVAHDLRNPLTAALLAVDTIQIRSQSFSVATAKEMQGLCSLFDQARSQLREIERMIAEILEATRHSGESLRINPREVVFEPLLQQVLEQLHERWRSKQQQLITDVPGDLPTLYADPDRLRQVLVNLLDNAIKYTPPGGTITIAALHRTSQKVQISISDTGSGIPRDQLSVIFKNLVRLSRDSSQEGYGIGLSVCQRIVQAHFGRIWVASELGQGSTFHFTMPVYRYTMPC
notes: SasA, adaptive-response sensory His kinase, Synechococcus elongatus; N-terminal sensory domain is residues 1-97; its expression and purification are not described; also called full-length SasA; wt SasA
B3: KaiB (S. elongatus) (natural protein, UniProt Q79PF5 1-102, looked up)
chain: T1 sequence (looked up) 1
notes: KaiB, Synechococcus elongatus; Tetramer free in solution; The crystal model used for SAXS (PDB 2QKE) is KaiB of another species (T. elongatus); also called KaiB tetramer; wt KaiB; source: E. coli BL21, GST fusion, purified
B4: wild type KaiC (S. elongatus) (natural protein, UniProt Q79PF4 1-519, looked up)
chain: T1 sequence (looked up) 2
notes: KaiC, Synechococcus elongatus; C-terminal residue S519; Its phosphorylation state varies in the cycling reaction; also called wt-KaiC; TST; source: E. coli BL21, purified
B5: KaiC T432E/S431E double mutant (natural protein, S. elongatus, UniProt Q79PF4 1-519, looked up)
chain: T1 sequence (looked up) 2 with S431E, T432E
modifications: phosphoserine at 320 (in the A and F subunits of the crystal structure)
notes: KaiC, Synechococcus elongatus, with S431E and T432E; the tag is therefore uncertain; also called KaiC-ee; S431E/T432E
B6: KaiC T432A/S431A double mutant (natural protein, S. elongatus, UniProt Q79PF4 1-519, looked up)
chain: T1 sequence (looked up) 2 with S431A, T432A
notes: KaiC, Synechococcus elongatus, with S431A and T432A; the tag is therefore uncertain; also called KaiC-aa; S431A/T432A

Residue numbers refer to the chain shown, from its start. Numbers in names are those of the source.

The target in data set [1] is B6. Nature of the data set: SAXS; binary complexes in solution, conditions set by native PAGE, 0.5-2.0 mg/mL, 10 or 20°C; ab initio envelopes without symmetry. Conditions: both partners purified.
The target in data set [2] is T1, KaiBC complex (KaiB with wild type KaiC). Nature of the data set: negative-stain EM; Kai complexes of the in vitro cycling reaction with 1x or 4x KaiA; reconstruction of class IV particles at ~30 Å. The note with it: both partners purified.
Data set [3] deals with the molecule itself. Nature of the data set: SAXS; individual proteins in solution, 0.5-2.0 mg/mL, 10 or 20°C; ab initio envelopes (DAMMIN, GASBOR) compared with crystal structures.
In data set [4] the target is B6. Nature of the data set: negative-stain EM; SasA:KaiC-aa complex, uranyl formate 0.75%, class averages and 3D reconstruction (C1) at 23.5 Å. The note with it: both partners purified.
Data set [5] concerns the target B5. Nature of the data set: SAXS; binary complexes in solution, conditions set by native PAGE, 0.5-2.0 mg/mL, 10 or 20°C; ab initio envelopes without symmetry. Conditions: both partners purified.
In data set [6] the target is B4. Nature of the data set: negative-stain EM; Kai complexes of the in vitro cycling reaction with 1x or 4x KaiA; reconstruction of class IV particles at ~30 Å. The note with it: both partners purified.
Data set [7] concerns the molecule itself. The data set is described as above.
Data set [8] concerns the molecule itself. Nature of the data set: crystal structure; KaiC-ee with ATPγS, 3.0 Å, molecular replacement with PDB 3DVL.
Data set [9] concerns the molecule itself. The data set can be described thus: negative-stain EM; SasA:KaiC-aa complex, uranyl formate 0.75%, class averages and 3D reconstruction (C1) at 23.5 Å.

For the molecule B1, the “stoichiometry N” value was 1 KaiA dimer per KaiC hexamer in data set [1] and 2 in data set [3]. Moreover, in [2], the binding result is given as “binds”.

As to B2, the results for the “stoichiometry N” value in data set [4] and in [5] were 2 binding sites per KaiC hexamer and 2 SasA dimers per KaiC hexamer, respectively.

For the molecule B3, the “stoichiometry N” value was 2 KaiB dimers per KaiC hexamer in [5] and 4 in data set [3]. The binding result in data set [6] was “binds”.

As to B4, the “stoichiometry N” value in data set [7] worked out at 6.

Turning to B5, the “stoichiometry N” value in data set [8] came to 6.

Turning to B6, the “stoichiometry N” value in data set [9] amounted to 6.
